T1: Recombinant FGFR4 (G&P Biosciences) (human, UniProt P22455 22-369)
T1 construct: Bought protein; the SPR method says only 'Recombinant; also called rFGFR4; extracellular FGFR4
T1 sequence: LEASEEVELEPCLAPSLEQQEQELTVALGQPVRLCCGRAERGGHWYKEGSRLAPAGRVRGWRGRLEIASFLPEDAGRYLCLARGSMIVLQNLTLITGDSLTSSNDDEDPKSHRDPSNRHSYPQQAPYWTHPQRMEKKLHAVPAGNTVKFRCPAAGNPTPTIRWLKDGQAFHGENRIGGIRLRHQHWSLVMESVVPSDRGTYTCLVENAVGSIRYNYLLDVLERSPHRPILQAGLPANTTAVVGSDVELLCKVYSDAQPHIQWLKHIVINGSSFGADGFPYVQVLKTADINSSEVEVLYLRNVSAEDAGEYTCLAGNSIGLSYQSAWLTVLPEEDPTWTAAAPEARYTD

B1: A8 nanobody (anti-FGFR4 sdAb, NaLi-H1 library) (VHH)
VHH: EVQLQASGGGFVQPGGSLRLSCAASGRTYSRDTMGWFRQAPGKEREFVSAISSRHSHTTYYADSVKGRFTISRDNSKNTVYLQMNSLRAEDTATYYCAEWDVFDMHYALPPMWYWGQGTQVTVSS
notes: also called A8 sdAb; not shown: C-terminal Myc/6xHis-tag and an additional cysteine
B2: B1 nanobody (anti-FGFR4 sdAb, NaLi-H1 library) (VHH)
VHH: EVQLQASGGGFVQPGGSLRLSCAASGYTSRSSAMGWFRQAPGKEREFVSAISDLTGYPYYYADSVKGRFTISRDNSKNTVYLQMNSLRAEDTATYYCAAYQDDKWTYGSQHGKYWGQGTQVTVSS
notes: also called B1 sdAb; not shown: C-terminal Myc/6xHis-tag and an additional cysteine
B3: B5 nanobody (anti-FGFR4 sdAb, NaLi-H1 library) (VHH)
VHH: EVQLQASGGGFVQPGGSLRLSCAASGRTSWLTTMGWFRQAPGKEREFVSAISSFSSKQGYYADSVKGRFTISRDNSKNTVYLQMNSLRAEDTATYYCAYASYPRHQGNGRWKDFVEYWGQGTQVTVSS
notes: Recombinant nanobody of about 17 kDa; also called B5 sdAb; not shown: C-terminal Myc/6xHis-tag and an additional cysteine
B4: F8 nanobody (anti-FGFR4 sdAb, Gimli library) (VHH)
VHH: EVQLVESGGGLVQPGGSLRLSCAASGTGYALDDMGWVRQAPGKGLEWVSAISDDESMADYYADSVKGRFTISRDNSKNTVYLQMNSLRAEDTAVYYCASYKEYKYQSGHHYFAYRGQGTLVTVSS
notes: Recombinant nanobody of about 17 kDa; also called F8 sdAb; not shown: C-terminal Myc/6xHis-tag and an additional cysteine

What was measured:
[1] = target: T2, FGFR4 expressed on the surface of RMS cells (Rh4-FR4 wt, Rh30) (human, UniProt P22455 22-802); experiment: flow cytometry, recombinant nanobody at 30 µg/ml on Rh4-FR4 wt cells, anti-6xHis-FITC detection
T2 construct: Endogenous FGFR4 of the rhabdomyosarcoma cell lines; The whole entry includes the signal peptide; also called cell-surface FGFR4; Rh4-FR4 wt cells
Description: Control cells (C) were either not stimulated or stimulated with FGF19 in absence of the nanobodies. The cell lysates were analysed by western blot with anti phospho ERK1/2 antibody. Total Erk1/2 levels are shown as loading control.
Binding validation of selected phages, recombinant nanobodies and decorated liposomes was performed on Rh4-FR4 wt and Rh4-FR4ko cells. Specificity of selected phage clones binding to FGFR4 was determined by flow cytometry in 96-well plates (Becton Dickinson). Cell surface staining of Rh4-FR4 wt or Rh4-FR4ko cells was performed on ice in PBS supplemented with 1% FBS. 80 μL phages+20 μL PBS/1% milk were incubated on 1×10⁵ cells for 1 h on ice. […] Samples were analyzed after two washes by flow cytometry on a MACSQuant® cytometer (Miltenyi) and results were analyzed with FlowJo™ software (BD Biosciences, France). Phages displaying anti-mCherry nanobodies were used as negative control²⁴ and as positive control we used an anti-FGFR4 antibody (BT53, kindly provided by J. Khan lab, NCI, Bethesda, MD). For binding test of recombinant nanobodies, cells were detached with Accutase® (Stemcell Technologies) and washed with PBS. All following steps were performed on ice: 4×10⁵ cells were incubated with nanobody concentrations of 30 μg/ml for 1 h, washed once with PBS and incubated for an additional 30 min with anti His-tag FITC labeled antibody (LS-C57341, LSBioscience, diluted 1:10). The cells were washed once more with PBS and analyzed. Targeting liposomes were added at 0.5 mM final lipid concentration to cells in 96-well plates and incubated for 2 h at 37° C. and 5% CO₂. The cells were washed twice with PBS and detached with Accutase®.
Validation of the binding of recombinant nanobodies to cell-surface expressed FGFR4 was performed with Rh4-FR4 wt and Rh4-FR4ko cells by flow cytometry. A FITC-labeled anti-6×His-tag antibody was used to detect surface-bound nanobodies.

[2] = target: T1, Recombinant FGFR4 (G&P Biosciences); experiment: SPR (BIAcore T200), single cycle kinetics, FGFR4 amine-immobilised, nanobody as analyte, heterogeneous ligand model, component 1 (KD1)
Description: (§1) FIG. 3: Affinity determination of nanobodies to recombinant protein via surface plasmon resonance spectroscopy. Single cycle kinetics analysis was performed on immobilized FGFR4 through covalent amine binding on the dextran based sensor chip. The analytes A8, B1, B5, F8 and mCh were injected in 5 different concentrations followed by a dissociation phase. A final dissociation step was added after the last injection step to determine Koff rates for the KD calculations. The black curves represent the measured data and red curves show the fit analysis (heterogeneous ligand model) performed with the BIAevaluation software.
(§2) Single cycle kinetics analysis was performed with the BIAcore® T200 instrument (GE Healthcare) on CMD200M sensor chips (XanTec bioanalytics GmbH) activated with a mixture of 300 mM NHS (N-hydroxysuccinimide) and 50 mM EDC (N-ethyl-N′-(dimethylaminopropyl) carbodiimide). Recombinant FGFR1, FGFR2, FGFR3 and FGFR4 (G&P Biosciences) were immobilized on the activated biosensors (800 to 12′000 RU; 1 RU=1 pg/mm²) followed by a blocking step with 1M ethanolamine. One flow channel per chip was used as a reference to provide background corrections. The nanobodies were injected at 5 different concentrations followed by a dissociation phase. Koff-rates were determined from a final dissociation step after the last injection. The measurements with FGFR4 were performed for each nanobody on freshly immobilized protein due to strong binding and incomplete dissociation from the surface. Immobilization flow rate was 5 μl/min and binding studies were performed at 30 μl/min. Binding parameters were determined with the heterogeneous ligand model fit of the BIAevaluation software. The black curves represent the measured data and red curves show the performed fit analysis.
(§3) To determine the binding affinity of the nanobodies to FGFR4, we performed surface plasmon resonance (SPR) spectroscopy with recombinant FGFR4. As already mentioned above, FGFR1 and FGFR2 are expressed on Rh4-FR4ko cells and flow cytometry analysis indicated no binding of the nanobodies to the cells. To further confirm FGFR4-specificity, we included also affinity measurements with recombinant FGFR1, FGFR2 and FGFR3. Nanobodies A8, B1, B5, F8, and mCh were injected in five different concentrations on a FGFR coated chip.

[3] = target: T1, Recombinant FGFR4 (G&P Biosciences); experiment: SPR (BIAcore T200), single cycle kinetics, FGFR4 amine-immobilised, nanobody as analyte, heterogeneous ligand model, component 1 (kon1)
Description: as §1, §2, §3

[4] = target: T1, Recombinant FGFR4 (G&P Biosciences); experiment: SPR (BIAcore T200), single cycle kinetics, FGFR4 amine-immobilised, nanobody as analyte, heterogeneous ligand model, component 2 (kon2)
Description: as §1, §2, §3

[5] = target: T1, Recombinant FGFR4 (G&P Biosciences); experiment: SPR (BIAcore T200), single cycle kinetics, FGFR4 amine-immobilised, nanobody as analyte, heterogeneous ligand model, component 2 (koff2)
Description: as §1, §2
(§4) To determine the binding affinity of the nanobodies to FGFR4, we performed surface plasmon resonance (SPR) spectroscopy with recombinant FGFR4. As already mentioned above, FGFR1 and FGFR2 are expressed on Rh4-FR4ko cells and flow cytometry analysis indicated no binding of the nanobodies to the cells. […]

[6] = target: T1, Recombinant FGFR4 (G&P Biosciences); experiment: SPR (BIAcore T200), single cycle kinetics, FGFR4 amine-immobilised, nanobody as analyte, heterogeneous ligand model, component 1 (koff1)
Description: as §1, §2, §4

Binder | median fluorescence intensity (MFI) [1] | Kd [2] | kon [3] | kon [4] | koff [5] | koff [6]
B1 | ~400 MFI | 0.00422 pM | 314000 M⁻¹ s⁻¹ | 66700 M⁻¹ s⁻¹ | 0.00245 s⁻¹ | –
B2 | ~400 MFI | 1.06 pM | 1.11e+06 M⁻¹ s⁻¹ | 216000 M⁻¹ s⁻¹ | 0.000992 s⁻¹ | 1.18e-06 s⁻¹
B3 | ~400 MFI | 308 pM | 1.84e+06 M⁻¹ s⁻¹ | 173000 M⁻¹ s⁻¹ | – | 0.000566 s⁻¹
B4 | ~400 MFI | 19.1 pM | 54500 M⁻¹ s⁻¹ | 1.35e+06 M⁻¹ s⁻¹ | 0.00557 s⁻¹ | 1.04e-06 s⁻¹

From US20260191907A1 (INSTITUT CURIE, published 2026)
